# Results taken from paper PMC7458321.
# Molecular target: GST F52(pBPa)
# Assay: cross-linking; photocrosslinking through pBPa in whole N. meningitidis cells, UV light for the indicated times up to 2 hours; bacterial extracts on Western blot with anti-GST mAb
# Chain of GST F52(pBPa) (P08515 2-218): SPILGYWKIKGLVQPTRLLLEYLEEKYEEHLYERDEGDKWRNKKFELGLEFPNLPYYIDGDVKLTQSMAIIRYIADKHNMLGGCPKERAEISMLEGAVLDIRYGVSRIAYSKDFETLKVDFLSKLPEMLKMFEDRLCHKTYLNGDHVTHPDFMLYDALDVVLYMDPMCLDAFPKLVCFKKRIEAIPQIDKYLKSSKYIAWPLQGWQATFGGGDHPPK
substance,measurement,value
GST F52(pBPa) (enzyme),stoichiometry N,2
